Assay results published in publication PMC10022779, “Purification and biochemical analysis of native AMPA receptors from three different mammalian species” (PLOS ONE, 2023).

Tests used:
Settings in all cases: one partner purified
[1] = molecular target: T1, GluA2 in native GluA2-containing AMPARs from pig brain (Sus scrofa (pig), endogenous brain, UniProt A0A287AEG6); test: SEC; fluorescence-size exclusion chromatography (FSEC), GFP fluorescence; 15F1-GFP Fab added to membranes solubilized in 2% digitonin (w/v), equal masses of membranes from each mammal
T1 construct: AMPA receptor subunit GluA2, pig, endogenous in brain; also called native pig AMPARs; source: endogenous, pig brain membranes, solubilized in 2% digitonin

[2] = molecular target: T2, GluA2 in native GluA2-containing AMPARs from rat brain (Rattus norvegicus, Sprague Dawley, UniProt P19491); test: as above
T2 construct: AMPA receptor subunit GluA2, rat, endogenous in brain; also called native rat AMPARs; source: endogenous, rat (Sprague Dawley) brain membranes, solubilized in 2% digitonin

[3] = molecular target: T3, GluA2 in native GluA2-containing AMPARs from mouse brain (Mus musculus, C57BL/6, UniProt P23819); test: pull-down; immunoaffinity purification: 15F1-GFP incubated with digitonin-solubilized membrane supernatant (on ice, 20 min), 15F1-GFP-bound AMPARs held on Streptactin resin by the twin-Strep II tag, eluted with 8 mM d-desthiobiotin, then SEC (Superose 6) in TBS, 1 uM (R,R)-2b, 1 uM MPQX, 0.075% digitonin; read out by FSEC and silver-stained SDS-PAGE
T3 construct: AMPA receptor subunit GluA2, mouse, endogenous in brain; also called native mouse AMPARs; source: endogenous, mouse (C57BL/6) brain membranes, solubilized in 2% digitonin
T3 sequence (P23819 25-883): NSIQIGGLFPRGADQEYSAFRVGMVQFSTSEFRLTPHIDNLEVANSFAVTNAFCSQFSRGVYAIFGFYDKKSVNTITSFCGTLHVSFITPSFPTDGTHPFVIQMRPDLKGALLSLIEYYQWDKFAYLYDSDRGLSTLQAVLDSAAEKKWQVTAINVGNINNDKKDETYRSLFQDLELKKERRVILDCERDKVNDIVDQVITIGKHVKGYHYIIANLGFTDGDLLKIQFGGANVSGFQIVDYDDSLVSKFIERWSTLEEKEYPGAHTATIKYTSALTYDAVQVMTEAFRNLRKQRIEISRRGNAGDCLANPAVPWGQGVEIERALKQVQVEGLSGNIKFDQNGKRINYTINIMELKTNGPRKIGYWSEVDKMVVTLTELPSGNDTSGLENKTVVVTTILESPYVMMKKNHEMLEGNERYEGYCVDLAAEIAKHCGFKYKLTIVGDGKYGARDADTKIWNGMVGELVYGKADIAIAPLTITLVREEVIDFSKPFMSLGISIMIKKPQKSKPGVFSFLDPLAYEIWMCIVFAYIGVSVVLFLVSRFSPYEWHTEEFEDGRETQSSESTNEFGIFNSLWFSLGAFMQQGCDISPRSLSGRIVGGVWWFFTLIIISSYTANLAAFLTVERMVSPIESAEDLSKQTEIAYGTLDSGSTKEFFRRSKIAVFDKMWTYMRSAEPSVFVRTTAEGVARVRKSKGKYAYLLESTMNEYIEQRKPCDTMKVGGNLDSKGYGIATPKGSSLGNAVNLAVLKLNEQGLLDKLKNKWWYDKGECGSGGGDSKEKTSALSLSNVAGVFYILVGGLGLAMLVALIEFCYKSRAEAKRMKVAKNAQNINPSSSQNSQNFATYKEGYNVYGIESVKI

T2 sequence (P19491 22-883): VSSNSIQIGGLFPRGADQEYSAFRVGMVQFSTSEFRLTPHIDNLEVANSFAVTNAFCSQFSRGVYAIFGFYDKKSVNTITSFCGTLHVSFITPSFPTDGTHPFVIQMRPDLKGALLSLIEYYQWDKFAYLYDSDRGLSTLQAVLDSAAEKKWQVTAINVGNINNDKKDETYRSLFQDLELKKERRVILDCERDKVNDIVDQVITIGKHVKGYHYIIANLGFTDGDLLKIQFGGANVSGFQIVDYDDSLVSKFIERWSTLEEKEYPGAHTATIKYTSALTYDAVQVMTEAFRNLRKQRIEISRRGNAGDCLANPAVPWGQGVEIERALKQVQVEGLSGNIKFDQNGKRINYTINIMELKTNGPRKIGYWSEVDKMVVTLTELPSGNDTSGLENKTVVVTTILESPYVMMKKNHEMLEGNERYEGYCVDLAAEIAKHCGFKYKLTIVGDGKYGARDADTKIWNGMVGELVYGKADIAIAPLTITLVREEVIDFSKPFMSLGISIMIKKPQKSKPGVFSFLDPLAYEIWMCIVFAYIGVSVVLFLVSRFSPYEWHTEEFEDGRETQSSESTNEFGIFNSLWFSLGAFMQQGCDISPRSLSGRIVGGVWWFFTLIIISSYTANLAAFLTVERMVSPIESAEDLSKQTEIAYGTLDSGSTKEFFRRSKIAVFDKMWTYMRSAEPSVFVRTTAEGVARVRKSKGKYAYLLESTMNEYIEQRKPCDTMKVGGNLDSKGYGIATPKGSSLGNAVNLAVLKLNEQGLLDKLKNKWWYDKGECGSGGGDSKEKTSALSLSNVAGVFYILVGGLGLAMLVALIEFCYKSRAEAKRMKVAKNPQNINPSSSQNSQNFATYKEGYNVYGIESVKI

binding result [1]: binds
binding result [2]: binds
binding result [3]: binds
B1: 15F1-GFP Fab (Fab, V domains shown)
VH: QAQLKESGPGLVAPSQSLSITCTVSGFSLTNYGVHWVRQPPGKGLEWLGVIWAGGSTNYNSALMSRVSISKDNSKSQVFLKMNSLQTDDTVMYYCAREDYDYDWHFDVWGAGTTVTVSS
VL: EIQMTQTTSSLSASLGDRVTISCRASQDISNYLSWYQQKPDGTVKLLIYYTSRLHSGVPSRFSGSGSGIDYSLTINNLEQEDFATYFCQQGNTLPLTFGAGTKLELK
notes: Fab domain of the heavy chain of the 15F1 monoclonal antibody; Fab domain of the light chain of the 15F1 monoclonal antibody; On the heavy chain eGFP is followed by the twin-Strep II tag; also called 15F1 Fab; anti-GluA2 antibody fragment; not shown: eGFP, C-terminal, kept; twin-Strep II, C-terminal, kept
